Reference: article PMC9645375 (Chemical Science, 2022)

Target: HDM2 (human double minute 2) protein (human, UniProt Q00987 1-491)
Experiment: fluorescence polarisation
Conditions: both partners purified

Chain of HDM2 (human double minute 2) protein (Q00987 whole entry): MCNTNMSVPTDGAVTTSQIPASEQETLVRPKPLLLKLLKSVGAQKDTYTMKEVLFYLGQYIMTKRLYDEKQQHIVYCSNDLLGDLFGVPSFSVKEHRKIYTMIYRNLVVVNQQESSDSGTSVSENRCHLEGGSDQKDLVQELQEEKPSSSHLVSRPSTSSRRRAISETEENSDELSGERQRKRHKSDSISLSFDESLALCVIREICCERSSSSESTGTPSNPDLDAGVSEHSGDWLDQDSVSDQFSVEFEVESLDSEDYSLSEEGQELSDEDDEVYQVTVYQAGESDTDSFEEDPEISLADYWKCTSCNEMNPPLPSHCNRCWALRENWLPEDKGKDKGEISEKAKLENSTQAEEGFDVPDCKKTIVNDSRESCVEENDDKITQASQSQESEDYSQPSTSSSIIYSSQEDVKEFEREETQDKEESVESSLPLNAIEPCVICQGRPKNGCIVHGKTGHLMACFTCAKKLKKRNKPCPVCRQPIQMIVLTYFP

B1: stapled HDM2-opt peptide (peptide)
peptide: PCFYDYWQCL
modifications: not fully specified; stapled (the two Cys residues at i and i+7 cross-linked)
notes: source: synthetic peptide
IC50: 6.9 ± 1.9 µM
